Assay [1] concerns the target AE.con gp140CF. Put plainly: ELISA, OD405 at 10 ug/ml. Background: In an ELISA, binding on a coated surface is turned into a signal by an enzyme label.
Assay [2] concerns the target T1, B.62357 gp140C.
T1 construct: also called B.62357 140C
Put plainly: ELISA, OD405 at 10 ug/ml.

The target of assay [3] is B.63521_V1/V2 tags. Put plainly: ELISA, OD405 at 10 ug/ml.
The target in assay [4] is B.con gp140CF. Put plainly: ELISA, OD405 at 10 ug/ml.
In assay [5] the target is T2, B.HXB/BAL gp140CFI (HIV-1, UniProt P04578 33-680).
T2 construct: also called B.HxB/Ba gp140 CFI
Put plainly: ELISA, OD405 at 10 ug/ml.

The next assay concerns the target T3, G.con 140CF.
T3 construct: also called G.con gp140CF; G.con.env03 gp140CF
Put plainly: ELISA OD405nm, bar chart, antibody concentration not given.

In the next assay the target is D.9009SA V1V2 Tags. The description is as above.
Another assay deals with T4, Con 6 120.
T4 construct: also called Con 6 gp120
The assay is described as above.

The target of assay [6] is B.63521_V1V2 Tags. The description is as above.
Another assay deals with T5, AE.con env03 40CF.
T5 construct: also called AE.con gp140CF; AE.con.env03 gp140CF
The assay is described as above.

Assay [7] has as its target T6, A.9004SS V1V2 Tags.
T6 V1V2 tags construct: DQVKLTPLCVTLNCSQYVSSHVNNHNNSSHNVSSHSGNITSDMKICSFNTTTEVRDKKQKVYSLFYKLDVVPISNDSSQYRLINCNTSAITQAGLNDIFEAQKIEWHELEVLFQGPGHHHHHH
The description is as above.

Assay [8] has as its target T7, B.62357 140C.
T7 construct: also called B.62357 gp140C
The assay is described as above.

The target in assay [9] is B.040 gp140C. The description is as above.
Another assay addresses A.Q23 V1V2 tags (HIV-1). The assay is described as above.
The target in another assay is B.9021 gp140C (HIV-1). The assay is described as above.
The target of assay [10] is T8, A.9004SS V1V2 Tags.
T8 Env construct: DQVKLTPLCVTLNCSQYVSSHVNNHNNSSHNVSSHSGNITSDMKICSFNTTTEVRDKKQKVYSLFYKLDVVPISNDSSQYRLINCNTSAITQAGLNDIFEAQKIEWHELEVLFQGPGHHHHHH
Put plainly: ELISA, OD405.

The target of assay [11] is T9, AE.con gp140CF.
T9 construct: also called AE.con.env03 gp140CF
Put plainly: ELISA, OD405.

A further assay deals with B. 684-6 gp140C. Put plainly: ELISA, OD405.
Assay [12] concerns the target T10, B.62357 140C.
T10 construct: also called B.62357 gp140C
Put plainly: ELISA, OD405.

Assay [13] concerns the target T11, B.63521_V1V2 Tags.
T11 Env construct: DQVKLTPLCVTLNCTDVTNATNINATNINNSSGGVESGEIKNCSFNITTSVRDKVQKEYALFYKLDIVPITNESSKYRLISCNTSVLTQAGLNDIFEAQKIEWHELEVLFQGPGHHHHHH
Put plainly: ELISA, OD405.

For assay [14], the target named is T12, B.Case A2 V1/V2 Tags.
T12 Env construct: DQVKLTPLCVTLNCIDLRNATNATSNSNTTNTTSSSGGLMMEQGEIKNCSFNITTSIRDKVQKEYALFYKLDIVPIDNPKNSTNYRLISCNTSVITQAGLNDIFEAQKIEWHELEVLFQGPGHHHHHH
Put plainly: ELISA, OD405.

The target of assay [15] is T13, C.1086 gp140.
T13 construct: also called C.1086gp140C
Put plainly: ELISA, OD405.

For assay [16], the target named is Con 6 gp120. Put plainly: ELISA, OD405.
Assay [17] has as its target T2, B.HXB/BAL gp140CFI. Put plainly: ELISA, OD405.
For another assay, the target named is C.1086 gp120 (HIV-1). Put plainly: ELISA, OD405.
A further assay addresses T14, A.9004SS V1/V2 tags.
T14 V1V2 tags construct: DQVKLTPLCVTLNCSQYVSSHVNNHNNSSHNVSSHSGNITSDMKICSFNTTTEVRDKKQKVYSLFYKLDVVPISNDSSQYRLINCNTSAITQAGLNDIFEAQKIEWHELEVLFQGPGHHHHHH
Put plainly: ELISA, OD405 at 10 ug/ml.

Assay [18] concerns the target AE.con gp140CF. Put plainly: ELISA, OD405 at 10 ug/ml. This is another data set of the same source.
The target in assay [19] is B.040 gp140C. Put plainly: ELISA, OD405 at 10 ug/ml.
Assay [20] deals with T1, B.62357 gp140C. Put plainly: ELISA, OD405 at 10 ug/ml. This is another data set of the same source.
For assay [21], the target named is B.63521_V1/V2 tags. Put plainly: ELISA, OD405 at 10 ug/ml. The source holds these as a separate data set.
Assay [22] addresses B.Case A2 V1/V2 tags. Put plainly: ELISA, OD405 at 10 ug/ml.
Assay [23] concerns the target B.con gp140CF. Put plainly: ELISA, OD405 at 10 ug/ml. This is another data set of the same source.
In assay [24] the target is T15, C.1086 gp140.
T15 construct: also called C.1086gp140C
Put plainly: ELISA, OD405 at 10 ug/ml.

Assay [25] deals with Con 6 gp120. Put plainly: ELISA, OD405 at 10 ug/ml.
Another assay addresses D.9009SA V1/V2 tags. Put plainly: ELISA, OD405 at 10 ug/ml.
Another assay concerns the target G.con gp140CF. Put plainly: ELISA, OD405 at 10 ug/ml.

Like-named read-outs stand apart in the source and are kept apart here.

B1: PG9 reverted unmutated ancestor antibody (antibody, V domains shown)
VH: QVQLVESGGGVVQPGRSLRLSCAASGFTFSSYGMHWVRQAPGKGLEWVAVISYDGSNKYYADSVKGRFTISRDNSKNTLYLQMNSLRAEDTAVYYCAREAGGPDYRNGYNYYDFWSGYYNYYYMDVWGKGTTVTVSS
VL: QSALTQPASVSGSPGQSITISCTGTSSDVGSYNLVSWYQQHPGKAPKLMIYEVSKRPSGVSNRFSGSKSGNTASLTISGLQAEDEADYYCCSLTSTRRWVFGGGTKLTVL
notes: also called PG9 RUA; PG9_RUA
Consider B1, for which the binding result with AE.con gp140CF [1], in the assay with B.62357 gp140C [2], with B.63521_V1/V2 tags [3], with B.con gp140CF [4] and with B.HXB/BAL gp140CFI [5] was “no binding (tested: 10 ug/ml)” in each case.

B2: CH59 (antibody, V domains shown)
VH: EVQLVESGGGLVQPGRSLRLSCAASGFTFDDGAMHWVRQAPGKGLEWVSGISWNSNIIAYADSVKGRFTISRDNAKNSLYLEMNSLRVEDTALYYCAKDSPRGELPLNYWGQGTLVTVSS
VL: SYELTQPPSVSVSPGQTARITCSGDALPKNYAYWYQQKSGQAPVLVIYEDSKRPSGIPERFSGSSSGTMATLTISGAQVEDEADYYCYSTDSSGNHRVFGGGTKLTVL
notes: also called mAb CH59
Consider B2, for which the binding result is given as “no binding (tested: not given)” in the assay with G.con 140CF; “binds” with D.9009SA V1V2 Tags; “no binding (tested: not given)” with Con 6 120; “no binding (tested: not given)” with B.63521_V1V2 Tags [6]; “binds” with AE.con env03 40CF; “binds” with A.9004SS V1V2 Tags [7]. Besides, the binding result with B.62357 140C [8], with B.040 gp140C [9], with A.Q23 V1V2 tags and with B.9021 gp140C was “no binding (tested: not given)” each time.

B3: CH59 reverted unmutated ancestor antibody (antibody, V domains shown)
VH: EVQLVESGGGLVQPGRSLRLSCAASGFTFDDYAMHWVRQAPGKGLEWVSGISWNSGSIGYADSVKGRFTISRDNAKNSLYLQMNSLRAEDTALYYCAKDSPRGELPFDYWGQGTLVTVSS
VL: SYELTQPPSVSVSPGQTARITCSGDALPKKYAYWYQQKSGQAPVLVIYEDSKRPSGIPERFSGSSSGTMATLTISGAQVEDEADYYCYSTDSSGNHRVFGGGTKLTVL
notes: also called CH59 RUA; CH59_RUA
Take B3: the binding result with A.9004SS V1V2 Tags [10], with AE.con gp140CF [11], with B. 684-6 gp140C, with B.62357 140C [12], with B.63521_V1V2 Tags [13] and with B.Case A2 V1/V2 Tags [14] was “no binding (tested: 10 ug/ml)” each time. Moreover, the binding result with C.1086 gp140 [15], with Con 6 gp120 [16], with B.HXB/BAL gp140CFI [17], in the assay with C.1086 gp120, in the assay with A.9004SS V1/V2 tags and in the assay with AE.con gp140CF [18] was “no binding (tested: 10 ug/ml)” each time. Also, the binding result with B.040 gp140C [19], with B.62357 gp140C [20], with B.63521_V1/V2 tags [21], in the assay with B.Case A2 V1/V2 tags [22], with B.con gp140CF [23] and in the assay with C.1086 gp140 [24] was “no binding (tested: 10 ug/ml)” each time. Also, the binding result with Con 6 gp120 [25], with D.9009SA V1/V2 tags and with G.con gp140CF was “no binding (tested: 10 ug/ml)” in each case.

The record behind these values is patent US9988424 (DUKE UNIVERSITY, dated 2018).
